Biological target: T1, surface-exposed domain of TraN (TraN^surf), N-terminal hexa-histidine tag (Salmonella enterica serovar Typhimurium …)
T1 chain: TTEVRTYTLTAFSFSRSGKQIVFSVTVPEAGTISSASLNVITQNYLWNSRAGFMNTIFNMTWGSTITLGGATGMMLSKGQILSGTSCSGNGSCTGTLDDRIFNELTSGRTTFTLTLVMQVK
Assay: ITC

B1: Nb^traN (TraN-specific nanobody), C-terminal hexa-histidine tag (VHH)
VHH: QVQLQESGGGLVQAGGSLRLSCAASGTIFDGVDMGWYRQAPGKEREFVAGITAGSSTYYADSVKGRFTISRDNAKNTVYLQMNSLKPEDTAVYYCAAYPLDEIGSHDPHSYWGQGTQVTVSS
- Kd: 4.45 µM

Reference: article doi:10.1101/2023.12.03.569830 (bioRxiv, 2023)
